Target: human IgE (human) (UniProt P01854)
Assay: Western blots of His tag IPSE incubated with human IgE (100-100,000 ng/ml), compared with IgG; called competitive inhibition experiments in paragraph 33

## recombinant His tag IPSE fusion protein
  fold higher affinity than to IgG: 100 times

Source: patent US20040253709A1
